Source: patent publication US20220403001A1, “PDE5 DERIVED REGULATORY CONSTRUCTS AND METHODS OF USE IN IMMUNOTHERAPY” (Obsidian Therapeutics, Inc., priority 2018, published 2022)

Assays:
hPDE5 mutants [1] = molecular target: hPDE5 mutants (Homo sapiens, UniProt O76074); assay: GFP FACS analysis of hPDE5 mutant library clones in NIH3T3 cell pools; details: for Stabilization ratio: GFP intensity 10 μM vardenafil vs DMSO; for Stabilization ratio / Destabilizing mutation co-efficient / MFI 10 μM VDF / MFI DMSO / GFP FACS analysis (MFI): experiment 1; for Destabilizing mutation co-efficient: GFP intensity mutant vs PDE5 wildtype construct in absence of ligand; for MFI 10 μM VDF / MFI DMSO: GFP, NIH3T3 cell pools; for MFI 10 μM VDF: 10 μM vardenafil 24 hr; for MFI DMSO: no ligand (DMSO)
Experimental: (§1) These constructs were packaged into lentivirus, transduced into NIH3T3 cells and select stable cell pools were derived as described below. […] Lentiviral stocks were used for transduction of NIH3T3 cells and subsequent cell pool selection. The day before transduction, NIH3T3 cells (1.8×10^6) were seeded in a T-25 flask and allowed to reach 60-70% confluency (˜1 day). The growth medium in the T-25 flask was then replaced with 1 mL virus (quickly thawed in a 37° C. water bath) and 5 μg/mL polybrene. […] Transduction medium was removed the following day and replaced with 5 mL fresh medium. At 48 hr after transduction, the medium was replaced with media containing 1 μg/mL puromycin. This puromycin medium was replaced every 3-4 days until cell pools were established (˜2 weeks).
(§2) The mean fluorescence intensity (MFI) of GFP at 100 μM concentration treatment was set as 100% hPDE5 stabilization effect (HPE), while DMSO treatment was set as 0% effect (ZPE) of hPDE5 stabilization. The effect of the compound on hPDE5 stabilization was calculated based on the following formula: % PDE5 stabilization effect=(MFI-ZPE)/(HPE-ZPE)×100.
(§3) Plots of the % effect versus concentration were generated with Graphpad Prism 5 and EC50 values were calculated using a four-parameter nonlinear regression model.
(§4) Select PDE5 clones from both experiment 1 and experiment 2 were directly compared. […] The stabilization ratio was calculated as the fold change in GFP intensity in ligand treated samples compared to treatment with DMSO (i.e. in the absence of ligand) with the same construct.

hPDE5 mutants [2] = assay: as above; details: experiment 1
Experimental: as §1, §2, §3, §4

LibC000002: hPDE5 (Amino acid 535-860 of WT, I700F, E796G), DD generated by random mutagenesis
Stabilization ratio (hPDE5 mutants [1]): 3.2 | Destabilizing mutation co-efficient (hPDE5 mutants [1]): 0.05 | MFI 10 μM VDF (hPDE5 mutants [1]): 981 | MFI DMSO (hPDE5 mutants [1]): 309

LibC000003: hPDE5 (Amino acid 535-860 of WT, D724G, K848N), DD generated by random mutagenesis
Stabilization ratio (hPDE5 mutants [1]): 2.9 | Destabilizing mutation co-efficient (hPDE5 mutants [1]): 0.11 | MFI 10 μM VDF (hPDE5 mutants [1]): 1870 | MFI DMSO (hPDE5 mutants [1]): 656

LibC000005: hPDE5 (Amino acid 535-860 of WT, I556S, E796D), DD generated by random mutagenesis
MFI 10 μM VDF (hPDE5 mutants [1]): 2081 | MFI DMSO (hPDE5 mutants [1]): 271 | GFP FACS analysis (MFI) (hPDE5 mutants [1]; SDF 3.704 μM): 518 | GFP FACS analysis (MFI) (hPDE5 mutants [1]; SDF 11.111 μM): 577 | GFP FACS analysis (MFI) (hPDE5 mutants [1]; SDF 33.333 μM): 734 | GFP FACS analysis (MFI) (hPDE5 mutants [1]; SDF 100 μM): 1136 | GFP FACS analysis (MFI) (hPDE5 mutants [1]; TDF 3.704 μM): 453 | GFP FACS analysis (MFI) (hPDE5 mutants [1]; TDF 11.111 μM): 551 | GFP FACS analysis (MFI) (hPDE5 mutants [1]; TDF 33.333 μM): 711 | GFP FACS analysis (MFI) (hPDE5 mutants [1]; TDF 100 μM): 814 | GFP FACS analysis (MFI) (hPDE5 mutants [1]; VDF 1.235 μM): 1044 | GFP FACS analysis (MFI) (hPDE5 mutants [1]; VDF 3.704 μM): 1968 | GFP FACS analysis (MFI) (hPDE5 mutants [1]; VDF 11.111 μM): 3066 | GFP FACS analysis (MFI) (hPDE5 mutants [1]; VDF 33.333 μM): 3892 | GFP FACS analysis (MFI) (hPDE5 mutants [1]; VDF 100 μM): 4240 | Fluorescence intensity Sildenafil (hPDE5 mutants [1]; median GFP fluorescence by FACS, 10 μM Sildenafil, direct comparison of clones): 1136 | Fluorescence intensity Tadalafil (hPDE5 mutants [1]; median GFP fluorescence by FACS, 10 μM Tadalafil, direct comparison of clones): 814 | Fluorescence intensity Vardenafil (hPDE5 mutants [1]; median GFP fluorescence by FACS, 10 μM Vardenafil, direct comparison of clones): 4240 | Fluorescence intensity DMSO (hPDE5 mutants [1]; median GFP fluorescence by FACS, vehicle DMSO (no ligand), direct comparison of clones): 359 | GFP FACS analysis (MFI) (hPDE5 mutants [2]; DMSO (no ligand), SDF series): 335 | GFP FACS analysis (MFI) (hPDE5 mutants [2]; DMSO (no ligand), TDF series): 366 | GFP FACS analysis (MFI) (hPDE5 mutants [2]; DMSO (no ligand), VDF series): 376 | GFP FACS analysis (MFI) (hPDE5 mutants [2]; SDF 1.235 μM): 479 | Percent stabilization effect (hPDE5 mutants [2]; SDF 1.235 μM): 18.0% | Percent stabilization effect (hPDE5 mutants [2]; SDF 3.704 μM): 22.8% | Percent stabilization effect (hPDE5 mutants [2]; SDF 11.111 μM): 30.2% | Percent stabilization effect (hPDE5 mutants [2]; SDF 33.333 μM): 49.8% | Percent stabilization effect (hPDE5 mutants [2]; SDF 100 μM (set as 100%)): 100.0% | GFP FACS analysis (MFI) (hPDE5 mutants [2]; TDF 1.235 μM): 418 | Percent stabilization effect (hPDE5 mutants [2]; TDF 1.235 μM): 11.6% | Percent stabilization effect (hPDE5 mutants [2]; TDF 3.704 μM): 19.4% | Percent stabilization effect (hPDE5 mutants [2]; TDF 11.111 μM): 41.3% | Percent stabilization effect (hPDE5 mutants [2]; TDF 33.333 μM): 77.0% | Percent stabilization effect (hPDE5 mutants [2]; TDF 100 μM (set as 100%)): 100.0% | Percent stabilization effect (hPDE5 mutants [2]; VDF 1.235 μM): 17.3% | Percent stabilization effect (hPDE5 mutants [2]; VDF 3.704 μM): 41.2% | Percent stabilization effect (hPDE5 mutants [2]; VDF 11.111 μM): 69.6% | Percent stabilization effect (hPDE5 mutants [2]; VDF 33.333 μM): 91.0% | Percent stabilization effect (hPDE5 mutants [2]; VDF 100 μM (set as 100%)): 100.0%

LibC000007: hPDE5 (Amino acid 535-860 of WT, H613L, D724Y, F755Y), DD generated by random mutagenesis
Stabilization ratio (hPDE5 mutants [1]): 1.0 | Destabilizing mutation co-efficient (hPDE5 mutants [1]): 0.04 | MFI 10 μM VDF (hPDE5 mutants [1]): 234 | MFI DMSO (hPDE5 mutants [1]): 234

LibC000010: hPDE5 (Amino acid 535-860 of WT, R658H), DD generated by random mutagenesis
Stabilization ratio (hPDE5 mutants [1]): 2.1 | Destabilizing mutation co-efficient (hPDE5 mutants [1]): 1.17 | MFI 10 μM VDF (hPDE5 mutants [1]): 13940 | MFI DMSO (hPDE5 mutants [1]): 6713

LibC000011: hPDE5 (Amino acid 535-860 of WT, S562G, L727P, R847T), DD generated by random mutagenesis
Stabilization ratio (hPDE5 mutants [1]): 1.2 | Destabilizing mutation co-efficient (hPDE5 mutants [1]): 0.01 | MFI 10 μM VDF (hPDE5 mutants [1]): 67 | MFI DMSO (hPDE5 mutants [1]): 57

LibC000013: hPDE5 (Amino acid 535-860 of WT, L781P), DD generated by random mutagenesis
Stabilization ratio (hPDE5 mutants [1]): 1.5 | Destabilizing mutation co-efficient (hPDE5 mutants [1]): 0.09 | MFI 10 μM VDF (hPDE5 mutants [1]): 723 | MFI DMSO (hPDE5 mutants [1]): 498 | GFP FACS analysis (MFI) (hPDE5 mutants [1]; SDF 3.704 μM): 3467 | GFP FACS analysis (MFI) (hPDE5 mutants [1]; SDF 11.111 μM): 5539 | GFP FACS analysis (MFI) (hPDE5 mutants [1]; SDF 33.333 μM): 7404 | GFP FACS analysis (MFI) (hPDE5 mutants [1]; SDF 100 μM): 8260 | GFP FACS analysis (MFI) (hPDE5 mutants [1]; TDF 3.704 μM): 6275 | GFP FACS analysis (MFI) (hPDE5 mutants [1]; TDF 11.111 μM): 8085 | GFP FACS analysis (MFI) (hPDE5 mutants [1]; TDF 33.333 μM): 8353 | GFP FACS analysis (MFI) (hPDE5 mutants [1]; TDF 100 μM): 7614 | GFP FACS analysis (MFI) (hPDE5 mutants [1]; VDF 1.235 μM): 6773 | GFP FACS analysis (MFI) (hPDE5 mutants [1]; VDF 3.704 μM): 7330 | GFP FACS analysis (MFI) (hPDE5 mutants [1]; VDF 11.111 μM): 7393 | GFP FACS analysis (MFI) (hPDE5 mutants [1]; VDF 33.333 μM): 7308 | GFP FACS analysis (MFI) (hPDE5 mutants [1]; VDF 100 μM): 7207 | GFP FACS analysis (MFI) (hPDE5 mutants [2]; DMSO (no ligand), SDF series): 943 | GFP FACS analysis (MFI) (hPDE5 mutants [2]; DMSO (no ligand), TDF series): 847 | GFP FACS analysis (MFI) (hPDE5 mutants [2]; DMSO (no ligand), VDF series): 854 | GFP FACS analysis (MFI) (hPDE5 mutants [2]; SDF 1.235 μM): 2076 | GFP FACS analysis (MFI) (hPDE5 mutants [2]; TDF 1.235 μM): 3688

LibC000014: hPDE5 (Amino acid 535-860 of WT, A767E), DD generated by random mutagenesis
Stabilization ratio (hPDE5 mutants [1]): 2.8 | Destabilizing mutation co-efficient (hPDE5 mutants [1]): 0.44 | MFI 10 μM VDF (hPDE5 mutants [1]): 6998 | MFI DMSO (hPDE5 mutants [1]): 2500
